Where two headings read alike, the source gives them in different places.

The target of data set [1] is microtubules (MTs), individual (UniProt P68363). As to the kind of experiment: single-molecule TIRF microscopy.
Data set [2] has the same target. The data set can be described thus: single-molecule TIRF microscopy. The source holds these as a separate data set.
Data set [3] shares this target. The data set can be described thus: single-molecule TIRF microscopy. The source holds these as a separate data set.
Data set [4] deals with the molecule itself. The data set can be described thus: single-molecule photobleaching steps.
The data set “SEC” deals with the molecule itself. The data set can be described thus: SEC. Background: In gel filtration, larger molecules generally elute earlier.
Data set [5] deals with the molecule itself. The data set can be described thus: negative stain electron microscopy.

Sequence of microtubules (MTs), individual (P68363 whole entry, chain 1 of 2): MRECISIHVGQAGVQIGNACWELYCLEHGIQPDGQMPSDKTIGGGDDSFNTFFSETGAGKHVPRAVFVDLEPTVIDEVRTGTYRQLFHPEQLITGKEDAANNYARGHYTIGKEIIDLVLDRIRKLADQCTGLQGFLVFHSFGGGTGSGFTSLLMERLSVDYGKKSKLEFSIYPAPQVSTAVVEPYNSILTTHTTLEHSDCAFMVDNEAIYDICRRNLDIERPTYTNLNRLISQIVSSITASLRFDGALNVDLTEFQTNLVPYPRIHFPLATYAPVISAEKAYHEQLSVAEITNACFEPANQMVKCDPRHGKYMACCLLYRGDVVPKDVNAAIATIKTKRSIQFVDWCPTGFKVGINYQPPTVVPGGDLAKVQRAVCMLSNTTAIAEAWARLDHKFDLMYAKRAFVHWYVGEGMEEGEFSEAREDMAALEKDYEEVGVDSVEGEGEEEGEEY
Sequence of microtubules (MTs), individual (P07437 whole entry, chain 2 of 2, further chain): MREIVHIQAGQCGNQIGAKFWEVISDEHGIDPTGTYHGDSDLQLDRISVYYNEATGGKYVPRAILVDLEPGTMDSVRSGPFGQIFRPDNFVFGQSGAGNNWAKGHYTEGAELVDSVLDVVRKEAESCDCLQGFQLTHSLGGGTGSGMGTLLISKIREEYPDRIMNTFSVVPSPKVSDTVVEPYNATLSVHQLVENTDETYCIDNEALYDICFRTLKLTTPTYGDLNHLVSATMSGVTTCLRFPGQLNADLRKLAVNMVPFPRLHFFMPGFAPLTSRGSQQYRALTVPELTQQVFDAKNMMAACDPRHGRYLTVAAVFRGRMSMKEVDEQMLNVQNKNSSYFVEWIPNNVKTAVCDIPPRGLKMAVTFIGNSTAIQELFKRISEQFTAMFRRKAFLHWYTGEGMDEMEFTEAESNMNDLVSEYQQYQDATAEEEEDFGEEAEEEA

B1: GFP-Kif15-FL (full-length Kif15, Kinesin-12) (natural protein, UniProt Q9NS87 1-1388, looked up)
chain: MAPGCKTELRSVTNGQSNQPSNEGDAIKVFVRIRPPAERSGSADGEQNLCLSVLSSTSLRLHSNPEPKTFTFDHVADVDTTQESVFATVAKSIVESCMSGYNGTIFAYGQTGSGKTFTMMGPSESDNFSHNLRGVIPRSFEYLFSLIDREKEKAGAGKSFLCKCSFIEIYNEQIYDLLDSASAGLYLREHIKKGVFVVGAVEQVVTSAAEAYQVLSGGWRNRRVASTSMNRESSRSHAVFTITIESMEKSNEIVNIRTSLLNLVDLAGSERQKDTHAEGMRLKEAGNINRSLSCLGQVITALVDVGNGKQRHVCYRDSKLTFLLRDSLGGNAKTAIIANVHPGSRCFGETLSTLNFAQRAKLIKNKAVVNEDTQGNVSQLQAEVKRLKEQLAELASGQTPPESFLTRDKKKTNYMEYFQEAMLFFKKSEQEKKSLIEKVTQLEDLTLKKEKFIQSNKMIVKFREDQIIRLEKLHKESRGGFLPEEQDRLLSELRNEIQTLREQIEHHPRVAKYAMENHSLREENRRLRLLEPVKRAQEMDAQTIAKLEKAFSEISGMEKSDKNQQGFSPKAQKEPCLFANTEKLKAQLLQIQTELNNSKQEYEEFKELTRKRQLELESELQSLQKANLNLENLLEATKACKRQEVSQLNKIHAETLKIITTPTKAYQLHSRPVPKLSPEMGSFGSLYTQNSSILDNDILNEPVPPEMNEQAFEAISEELRTVQEQMSALQAKLDEEEHKNLKLQQHVDKLEHHSTQMQELFSSERIDWTKQQEELLSQLNVLEKQLQETQTKNDFLKSEVHDLRVVLHSADKELSSVKLEYSSFKTNQEKEFNKLSERHMHVQLQLDNLRLENEKLLESKACLQDSYDNLQEIMKFEIDQLSRNLQNFKKENETLKSDLNNLMELLEAEKERNNKLSLQFEEDKENSSKEILKVLEAVRQEKQKETAKCEQQMAKVQKLEESLLATEKVISSLEKSRDSDKKVVADLMNQIQELRTSVCEKTETIDTLKQELKDINCKYNSALVDREESRVLIKKQEVDILDLKETLRLRILSEDIERDMLCEDLAHATEQLNMLTEASKKHSGLLQSAQEELTKKEALIQELQHKLNQKKEEVEQKKNEYNFKMRQLEHVMDSAAEDPQSPKTPPHFQTHLAKLLETQEQEIEDGRASKTSLEHLVTKLNEDREVKNAEILRMKEQLREMENLRLESQQLIEKNWLLQGQLDDIKRQKENSDQNHPDNQQLKNEQEESIKERLAKSKIVEEMLKMKADLEEVQSALYNKEMECLRMTDEVERTQTLESKAFQEKEQLRSKLEEMYEERERTSQEMEMLRKQVECLAEENGKLVGHQNLHQKIQYVVRLKKENVRLAEETEKLRAENVFLKEKKRSES
As a reminder, the stoichiometry N is the number of molecules, sites or subunits per partner or assembly. On to B1, for which the dwell time in data set [1] came out at 12.2 s; in data set [2], 4 s; in data set [3] it was 1.9 s. Further, the “stoichiometry N” value in data set [4] came out at 2.

B2: Kif15-N700 (C-terminally truncated Kif15) (domain or fragment, UniProt Q9NS87 1-700, looked up)
chain: MAPGCKTELRSVTNGQSNQPSNEGDAIKVFVRIRPPAERSGSADGEQNLCLSVLSSTSLRLHSNPEPKTFTFDHVADVDTTQESVFATVAKSIVESCMSGYNGTIFAYGQTGSGKTFTMMGPSESDNFSHNLRGVIPRSFEYLFSLIDREKEKAGAGKSFLCKCSFIEIYNEQIYDLLDSASAGLYLREHIKKGVFVVGAVEQVVTSAAEAYQVLSGGWRNRRVASTSMNRESSRSHAVFTITIESMEKSNEIVNIRTSLLNLVDLAGSERQKDTHAEGMRLKEAGNINRSLSCLGQVITALVDVGNGKQRHVCYRDSKLTFLLRDSLGGNAKTAIIANVHPGSRCFGETLSTLNFAQRAKLIKNKAVVNEDTQGNVSQLQAEVKRLKEQLAELASGQTPPESFLTRDKKKTNYMEYFQEAMLFFKKSEQEKKSLIEKVTQLEDLTLKKEKFIQSNKMIVKFREDQIIRLEKLHKESRGGFLPEEQDRLLSELRNEIQTLREQIEHHPRVAKYAMENHSLREENRRLRLLEPVKRAQEMDAQTIAKLEKAFSEISGMEKSDKNQQGFSPKAQKEPCLFANTEKLKAQLLQIQTELNNSKQEYEEFKELTRKRQLELESELQSLQKANLNLENLLEATKACKRQEVSQLNKIHAETLKIITTPTKAYQLHSRPVPKLSPEMGSFGSLYTQNSSILDNDILN
With B2, the “stoichiometry N” value in the data set “SEC” was determined as 2.

B3: GFP-HSET (kinesin-14 HSET) (natural protein, UniProt Q9BW19 1-673, looked up)
chain: MDPQRSPLLEVKGNIELKRPLIKAPSQLPLSGSRLKRRPDQMEDGLEPEKKRTRGLGATTKITTSHPRVPSLTTVPQTQGQTTAQKVSKKTGPRCSTAIATGLKNQKPVPAVPVQKSGTSGVPPMAGGKKPSKRPAWDLKGQLCDLNAELKRCRERTQTLDQENQQLQDQLRDAQQQVKALGTERTTLEGHLAKVQAQAEQGQQELKNLRACVLELEERLSTQEGLVQELQKKQVELQEERRGLMSQLEEKERRLQTSEAALSSSQAEVASLRQETVAQAALLTEREERLHGLEMERRRLHNQLQELKGNIRVFCRVRPVLPGEPTPPPGLLLFPSGPGGPSDPPTRLSLSRSDERRGTLSGAPAPPTRHDFSFDRVFPPGSGQDEVFEEIAMLVQSALDGYPVCIFAYGQTGSGKTFTMEGGPGGDPQLEGLIPRALRHLFSVAQELSGQGWTYSFVASYVEIYNETVRDLLATGTRKGQGGECEIRRAGPGSEELTVTNARYVPVSCEKEVDALLHLARQNRAVARTAQNERSSRSHSVFQLQISGEHSSRGLQCGAPLSLVDLAGSERLDPGLALGPGERERLRETQAINSSLSTLGLVIMALSNKESHVPYRNSKLTYLLQNSLGGSAKMLMFVNISPLEENVSESLNSLRFASKVNQCVIGTAQANRK
Regarding B3, the “stoichiometry N” value in data set [5] came to 2.

For the origin of these results see PMC4207087 (Current biology : CB, 2014).
